± gives the uncertainty stated by the source.
Assay: protein stability index of a GFP-peptide fusion (yeast GPS) (PSI 1-4); higher = more stable; sorted into four equal gates, so the index is relative within each strain
Procedure, shortened: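 Sequencing reads from sorted gates were used to score each peptide. The library consisted of tiled 17-residue yeast protein peptides fused downstream of GFP on a Cherry-expressing plasmid, pooled and carried in yeast. Mid-log cultures in leucine-free medium were split into four equal gates by GFP/Cherry ratio, and each gate's plasmids were PCR-amplified and Illumina-sequenced. The protein stability index adds up, over all gates, the read frequency multiplied by the gate number.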

Row | Sequence | protein stability index (doa10∆) | protein stability index (pdr5∆) | protein stability index (san1∆) | protein stability index (ubr1∆)
1 | TSCTIPKAVVDHINGSG [GAL11] | 2.23 ± 0.083 | 2.78 ± 0.077 | 1.24 ± 0.12 | 1.79 ± 0.087
2 | IQSAESIKSQKEEISDQ [SWI3] | 2.4 ± 0.26 | 3.08 ± 0.14 | 2.58 ± 0.098 | 2.85 ± 0.11
3 | QQPHYIQRTRERKKSIG [DSN1] | 2.93 ± 0.067 | 2.85 ± 0.047 | 2.63 ± 0.048 | 2.69 ± 0.051
4 | HKNERRVLEIQTSLVRM [SKI6] | 2.99 ± 0.091 | 2.63 ± 0.078 | 2.44 ± 0.13 | 2.96 ± 0.053
5 | LDPINLPLDSQDDEYVK [PRP8] | 2.83 ± 0.075 | 3.01 ± 0.066 | 3.14 ± 0.093 | 3.05 ± 0.045
6 | EFVSYYYAHSIPSSKID [SNU114] | 2.01 ± 0.045 | 1.9 ± 0.052 | 2.07 ± 0.063 | 1.62 ± 0.039
7 | AMTAAEHGLHAPAYAWS [CYT1] | 3.16 ± 0.13 | 3.31 ± 0.097 | 2.8 ± 0.13 | 3.27 ± 0.064
8 | LEKFLQGRDTSKLPDPE [SRP72] | 2.76 ± 0.11 | 2.2 ± 0.06 | 2.38 ± 0.11 | 2.77 ± 0.051
9 | TKIAQSQTMAETYVASY [ECM29] | 1.92 ± 0.037 | 2.48 ± 0.036 | 2.27 ± 0.044 | 2.22 ± 0.034
10 | NLVKEKEALQNNIFKEF [SMC1] | 3.51 ± 0.12 | 3.06 ± 0.12 | 2.99 ± 0.12 | –
11 | DTIATSATPNAAAFSQQ [GAL11] | 2.6 ± 0.056 | 2.92 ± 0.064 | 2.76 ± 0.055 | 2.82 ± 0.039
12 | QKQLPQKTRVKLLFDHD [ESC2] | 2.86 ± 0.057 | 2.93 ± 0.05 | 3.03 ± 0.039 | 3 ± 0.039
13 | NATLQALYRVNDLRDMI [UBP6] | 2.74 ± 0.096 | 2.95 ± 0.093 | 3.03 ± 0.062 | 3.05 ± 0.075
14 | ELGAINLHALSMSLQSK [SWI1] | 2.39 ± 0.058 | 2.33 ± 0.085 | 1.99 ± 0.27 | 2.46 ± 0.076
15 | FSDKVNALWILVDLVSH [ITC1] | 1.4 ± 0.079 | 1.23 ± 0.051 | 1.35 ± 0.094 | 1.27 ± 0.045
16 | KNEKLILEESLNAIILK [SMC3] | 2.74 ± 0.075 | 2.64 ± 0.087 | 2.18 ± 0.17 | 2.65 ± 0.064
17 | AAKGSSTSYAIKKKDEL [RPS5] | 3.4 ± 0.18 | 1.82 ± 0.085 | 3.35 ± 0.087 | 3.28 ± 0.13
18 | GIDPTRIYTNSFIDIME [RPO21] | 2.64 ± 0.048 | 2.5 ± 0.045 | 2.77 ± 0.048 | 2.53 ± 0.034
19 | HSVQETNKISPKDFSPN [SSN2] | 3.37 ± 0.094 | 2.68 ± 0.078 | 2.93 ± 0.054 | 3.11 ± 0.07
20 | HNSVKRYQIMLPEQLKS [SNM1] | 1.16 ± 0.042 | 1.59 ± 0.052 | 1.44 ± 0.1 | 1.74 ± 0.041
21 | TTAEPKAKRAKTGSAST [TAF14] | 3.2 ± 0.077 | 3.14 ± 0.093 | 3.34 ± 0.053 | 3.29 ± 0.053
22 | LLYELTAFKATVFFLIR [YJL039C/NUP192] | 2.32 ± 0.071 | 2.36 ± 0.09 | 1.82 ± 0.077 | 2.43 ± 0.063
23 | TSIHSTISILAAPSGNY [RRP43] | 1.59 ± 0.038 | 1.85 ± 0.033 | 1.97 ± 0.05 | 1.67 ± 0.029
24 | KPYYFSNNHKLSESDKK [RPN12] | 1.23 ± 0.063 | 1.47 ± 0.077 | 1.33 ± 0.13 | 1.22 ± 0.042
25 | DTDSKPSSQSQNDTPMF [YLR018C/POM34] | 2.89 ± 0.044 | 3.17 ± 0.048 | 3 ± 0.039 | 2.95 ± 0.034
26 | QDDADPMVSVMKMDKSP [RPT2] | 1.16 ± 0.065 | 1.27 ± 0.079 | 1.29 ± 0.26 | 1.52 ± 0.073
27 | PRSDDLEATWNFIEPGI [CDC53] | 3.04 ± 0.15 | 3.29 ± 0.13 | 3.15 ± 0.096 | 3.02 ± 0.11

Row | Sequence | protein stability index (doa10∆) | protein stability index (pdr5∆) | protein stability index (san1∆) | protein stability index (ubr1∆)
28 | SLSEFARRRQPTDQNNQ [SNF2] | 2.89 ± 0.11 | 3.12 ± 0.13 | 3.1 ± 0.067 | 2.87 ± 0.1
29 | QLLQRLNDMNTEISGLK [SMC3] | 3.28 ± 0.081 | 3.38 ± 0.1 | 3.22 ± 0.06 | 3.3 ± 0.058
30 | TETALMNLKKELQGYIE [SRB5] | 3.05 ± 0.097 | 3.07 ± 0.089 | 3.11 ± 0.062 | 2.94 ± 0.085
31 | GKMIELISGKAGVLNGT [RET1] | 2.62 ± 0.079 | 2.98 ± 0.087 | 2.52 ± 0.24 | 2.6 ± 0.11
32 | LIASHYGVSFFTIQSFV [BRR2] | 1.92 ± 0.043 | 1.89 ± 0.039 | 1.48 ± 0.063 | 1.81 ± 0.051
33 | RTRRLKRKRRKVRARSK [RPL41A] | – | 3.13 ± 0.22 | – | 3.22 ± 0.2
34 | LSLVYEIGGSDLKESMV [ECM29] | 2.98 ± 0.11 | 3.32 ± 0.12 | 3.36 ± 0.051 | 3.28 ± 0.11
35 | LGNTSSVANTPSEIPDA [SWI3] | 2.95 ± 0.059 | 3.06 ± 0.062 | 3.03 ± 0.091 | 2.98 ± 0.047
36 | TIRVVTENKIFVEVERA [RPN5] | 1.51 ± 0.18 | 1.94 ± 0.14 | – | 2.45 ± 0.27
37 | FLKLYVLVKWTRTIKQN [RGR1] | 1.41 ± 0.11 | 1.85 ± 0.14 | 2.38 ± 0.17 | 1.15 ± 0.091
38 | TREDVSPHYNSQKQTLI [SSN3] | 2.16 ± 0.05 | 2.71 ± 0.05 | 2.15 ± 0.048 | 2.81 ± 0.051
39 | WRVREASTSALLQLIQS [ECM29] | 1.16 ± 0.13 | 1.41 ± 0.12 | 1.04 ± 0.22 | –
40 | VIFLSSLLTLVGSVTYQ [YJL039C/NUP192] | 1.39 ± 0.14 | 1.21 ± 0.14 | 1.14 ± 0.28 | 1.2 ± 0.13
41 | DHEFVLISLIMTTWRKL [YMR129W/POM152] | 1.3 ± 0.12 | 1.09 ± 0.075 | 1.1 ± 0.14 | 1.26 ± 0.07
42 | HNGWVTSLATSAGQPNL [ASC1] | 2.32 ± 0.044 | 2.04 ± 0.049 | 2.09 ± 0.08 | 2.12 ± 0.052
43 | SMKYDNGVIIAADNLGS [PRE4] | 2.66 ± 0.15 | 3.35 ± 0.088 | 2.5 ± 0.13 | 3.06 ± 0.11
44 | YWQFNGVIALGQFVTLG [RMP1] | 3.23 ± 0.094 | 2.79 ± 0.086 | 2.11 ± 0.086 | 2.91 ± 0.055
45 | LVEKVYARFKNDFFPGE [ITC1] | 3.47 ± 0.091 | 3.36 ± 0.1 | 3.05 ± 0.058 | 3.25 ± 0.077
46 | AFFTYDAGVTFNKEQLN [ECM29] | 2.07 ± 0.052 | 3.08 ± 0.1 | 2.63 ± 0.083 | 2.58 ± 0.061
47 | TKTTGKCGSVTVRLIPA [RPS2] | 1.34 ± 0.11 | 1.7 ± 0.082 | 1.35 ± 0.17 | 1.71 ± 0.11
48 | MSKIQVAHSSRLANLID [SMB1] | 1.47 ± 0.096 | 1.81 ± 0.15 | 1.09 ± 0.14 | 1.2 ± 0.15
49 | RTQAGDIVSIDIEEPQL [MTW1] | 2.99 ± 0.12 | 3.26 ± 0.1 | 3.36 ± 0.061 | 3.24 ± 0.081
50 | KDERDTWIHSEIEELKS [SMC3] | 3.16 ± 0.18 | 3.02 ± 0.097 | 2.91 ± 0.25 | 3.19 ± 0.12
51 | KKFATVPTGGASSAAAG [RPP2B] | 3.17 ± 0.13 | 3.21 ± 0.14 | 2.89 ± 0.079 | 3.06 ± 0.067
52 | KINDESSIDKKSSILTV [YML103C/NUP188] | 2.35 ± 0.062 | 2.68 ± 0.067 | 2.56 ± 0.059 | 2.52 ± 0.056
53 | EAEIECFDSTTGRDAGF [RRP40] | 3.15 ± 0.17 | 3.12 ± 0.17 | 3.28 ± 0.095 | 3.2 ± 0.12
